Among the data in the Human Domainome abundance scans (Beltran et al. 2025) are abundance fitness values, retold here.

± gives the uncertainty stated by the source.

B1: Zinc finger MYM-type protein 6, residues 427 to 504; numbered along this chain, O95789 (parent)
chain: KLKCQHCNHLFATKPELLFYKGKMFLFCGKNCSDEYKKKNKVVAMCDYCKLQKIIKETVRFSGVDKPFCSEVCKFLSA

This data set covers variants of B1. The experiment in a line: abundance fitness (aPCA) (normalised: wild type 0, dead -1); higher = more abundant; growth selection in yeast, the domain comes from the species named. Particulars: Homo sapiens.
Consider KLKCQHCNHLFATKPELLFYKGKMFLFCGKNCSDEYKKKNKVVAMCNYCKLQKIIKETVRFSGVDKPFCSEVCKFLSA, for which the abundance fitness is -0.327 ± 0.19.
The value for KLKCQHCNHLFATKPELLFYKGKMFLFCGKNCSDEYKKKNKVVAMCWYCKLQKIIKETVRFSGVDKPFCSEVCKFLSA was 0.424 ± 0.072.
KLKCQHCNHLFATKPELLFYKGKMFLFCGKNCSDEYKKKNKVVAMCHYCKLQKIIKETVRFSGVDKPFCSEVCKFLSA: the abundance fitness stood at 0.26 ± 0.23.
The value for KLKCQHCNHLFATKPELLFYKGKMFLFCGKNCSDEYKKKNKVVAMCIYCKLQKIIKETVRFSGVDKPFCSEVCKFLSA was -0.306 ± 0.46.
Under KLKCQHCNHLFATKPELLFYKGKMFLFCGKNCSDEYKKKNKVVAMCLYCKLQKIIKETVRFSGVDKPFCSEVCKFLSA stands 0.177 ± 0.066; under KLKCQHCNHLFATKPELLFYKGKMFLFCGKNCSDEYKKKNKVVAMCEYCKLQKIIKETVRFSGVDKPFCSEVCKFLSA, -0.125 ± 0.13; under KLKCQHCNHLFATKPELLFYKGKMFLFCGKNCSDEYKKKNKVVAMCCYCKLQKIIKETVRFSGVDKPFCSEVCKFLSA, -0.16 ± 0.16.
With KLKCQHCNHLFATKPELLFYKGKMFLFCGKNCSDEYKKKNKVVAMCAYCKLQKIIKETVRFSGVDKPFCSEVCKFLSA, the abundance fitness was -0.033 ± 0.087.
The value for KLKCQHCNHLFATKPELLFYKGKMFLFCGKNCSDEYKKKNKVVAMCSYCKLQKIIKETVRFSGVDKPFCSEVCKFLSA was 0.311 ± 0.082; that for KLKCQHCNHLFATKPELLFYKGKMFLFCGKNCSDEYKKKNKVVAMCRYCKLQKIIKETVRFSGVDKPFCSEVCKFLSA was -0.394 ± 0.09.
Under KLKCQHCNHLFATKPELLFYKGKMFLFCGKNCSDEYKKKNKVVAMCTYCKLQKIIKETVRFSGVDKPFCSEVCKFLSA stands -0.041 ± 0.15; under KLKCQHCNHLFATKPELLFYKGKMFLFCGKNCSDEYKKKNKVVAMCQYCKLQKIIKETVRFSGVDKPFCSEVCKFLSA, -0.106 ± 0.2; under KLKCQHCNHLFATKPELLFYKGKMFLFCGKNCSDEYKKKNKVVAMCVYCKLQKIIKETVRFSGVDKPFCSEVCKFLSA, -0.58 ± 0.1.
Under KLKCQHCNHLFATKPELLFYKGKMFLFCGKNCSDEYKKKNKVVAMGDYCKLQKIIKETVRFSGVDKPFCSEVCKFLSA stands -0.629 ± 0.094.
On to KLKCQHCNHLFATKPELLFYKGKMFLFCGKNCSDEYKKKNKVVAMKDYCKLQKIIKETVRFSGVDKPFCSEVCKFLSA, for which the abundance fitness is 0.241 ± 0.13.
KLKCQHCNHLFATKPELLFYKGKMFLFCGKNCSDEYKKKNKVVAMEDYCKLQKIIKETVRFSGVDKPFCSEVCKFLSA: the abundance fitness is -0.674 ± 0.13.
The value for KLKCQHCNHLFATKPELLFYKGKMFLFCGKNCSDEYKKKNKVVAMRDYCKLQKIIKETVRFSGVDKPFCSEVCKFLSA was -0.331 ± 0.099; that for KLKCQHCNHLFATKPELLFYKGKMFLFCGKNCSDEYKKKNKVVAMWDYCKLQKIIKETVRFSGVDKPFCSEVCKFLSA was 0.056 ± 0.11; that for KLKCQHCNHLFATKPELLFYKGKMFLFCGKNCSDEYKKKNKVVAMVDYCKLQKIIKETVRFSGVDKPFCSEVCKFLSA was -0.308 ± 0.11.
On to KLKCQHCNHLFATKPELLFYKGKMFLFCGKNCSDEYKKKNKVVAMPDYCKLQKIIKETVRFSGVDKPFCSEVCKFLSA, for which the abundance fitness is -0.248 ± 0.2.
The value for KLKCQHCNHLFATKPELLFYKGKMFLFCGKNCSDEYKKKNKVVAMTDYCKLQKIIKETVRFSGVDKPFCSEVCKFLSA was -0.311 ± 0.18.
Under KLKCQHCNHLFATKPELLFYKGKMFLFCGKNCSDEYKKKNKVVAMSDYCKLQKIIKETVRFSGVDKPFCSEVCKFLSA stands -0.703 ± 0.17.
Under KLKCQHCNHLFATKPELLFYKGKMFLFCGKNCSDEYKKKNKVVAMIDYCKLQKIIKETVRFSGVDKPFCSEVCKFLSA stands 0.329 ± 0.44; under KLKCQHCNHLFATKPELLFYKGKMFLFCGKNCSDEYKKKNKVVAMMDYCKLQKIIKETVRFSGVDKPFCSEVCKFLSA, -0.159 ± 0.12.
As for KLKCQHCNHLFATKPELLFYKGKMFLFCGKNCSDEYKKKNKVVAMDDYCKLQKIIKETVRFSGVDKPFCSEVCKFLSA, the abundance fitness is -0.531 ± 0.15.
With KLKCQHCNHLFATKPELLFYKGKMFLFCGKNCSDEYKKKNKVVAMADYCKLQKIIKETVRFSGVDKPFCSEVCKFLSA, the abundance fitness is -0.479 ± 0.12.
The value for KLKCQHCNHLFATKPELLFYKGKMFLFCGKNCSDEYKKKNKVVAMCDYEKLQKIIKETVRFSGVDKPFCSEVCKFLSA was -0.64 ± 0.18; that for KLKCQHCNHLFATKPELLFYKGKMFLFCGKNCSDEYKKKNKVVAMCDYDKLQKIIKETVRFSGVDKPFCSEVCKFLSA was -0.718 ± 0.14; that for KLKCQHCNHLFATKPELLFYKGKMFLFCGKNCSDEYKKKNKVVAMCDYAKLQKIIKETVRFSGVDKPFCSEVCKFLSA was -0.604 ± 0.11.
The value for KLKCQHCNHLFATKPELLFYKGKMFLFCGKNCSDEYKKKNKVVAMCDCCKLQKIIKETVRFSGVDKPFCSEVCKFLSA was 0.426 ± 0.21; that for KLKCQHCNHLFATKPELLFYKGKMFLFCGKNCSDEYKKKNKVVAMCDRCKLQKIIKETVRFSGVDKPFCSEVCKFLSA was -0.043 ± 0.076.
The value for KLKCQHCNHLFATKPELLFYKGKMFLFCGKNCSDEYKKKNKVVAMCDVCKLQKIIKETVRFSGVDKPFCSEVCKFLSA was -0.677 ± 0.12.
Regarding KLKCQHCNHLFATKPELLFYKGKMFLFCGKNCSDEYKKKNKVVAMCDECKLQKIIKETVRFSGVDKPFCSEVCKFLSA, the abundance fitness is -0.861 ± 0.28.
For the variant KLKCQHCNHLFATKPELLFYKGKMFLFCGKNCSDEYKKKNKVVAMCDKCKLQKIIKETVRFSGVDKPFCSEVCKFLSA, the abundance fitness is -0.496 ± 0.22.
Under KLKCQHCNHLFATKPELLFYKGKMFLFCGKNCSDEYKKKNKVVAMCDMCKLQKIIKETVRFSGVDKPFCSEVCKFLSA stands -0.65 ± 0.17; under KLKCQHCNHLFATKPELLFYKGKMFLFCGKNCSDEYKKKNKVVAMCDHCKLQKIIKETVRFSGVDKPFCSEVCKFLSA, 0.537 ± 0.18.
The value for KLKCQHCNHLFATKPELLFYKGKMFLFCGKNCSDEYKKKNKVVAMCDSCKLQKIIKETVRFSGVDKPFCSEVCKFLSA was -0.52 ± 0.13; that for KLKCQHCNHLFATKPELLFYKGKMFLFCGKNCSDEYKKKNKVVAMCDPCKLQKIIKETVRFSGVDKPFCSEVCKFLSA was -0.801 ± 0.23; that for KLKCQHCNHLFATKPELLFYKGKMFLFCGKNCSDEYKKKNKVVAMCDTCKLQKIIKETVRFSGVDKPFCSEVCKFLSA was -0.014 ± 0.34.
The value for KLKCQHCNHLFATKPELLFYKGKMFLFCGKNCSDEYKKKNKVVAMCDACKLQKIIKETVRFSGVDKPFCSEVCKFLSA was -0.557 ± 0.11.
Consider KLKCQHCNHLFATKPELLFYKGKMFLFCGKNCSDEYKKKNKVVAMCDQCKLQKIIKETVRFSGVDKPFCSEVCKFLSA, for which the abundance fitness is 0.059 ± 0.14.
Under KLKCQHCNHLFATKPELLFYKGKMFLFCGKNCSDEYKKKNKVVAMCDGCKLQKIIKETVRFSGVDKPFCSEVCKFLSA stands -0.174 ± 0.077; under KLKCQHCNHLFATKPELLFYKGKMFLFCGKNCSDEYKKKNKVVAMCDLCKLQKIIKETVRFSGVDKPFCSEVCKFLSA, -0.496 ± 0.11; under KLKCQHCNHLFATKPELLFYKGKMFLFCGKNCSDEYKKKNKVVAMCDWCKLQKIIKETVRFSGVDKPFCSEVCKFLSA, -0.276 ± 0.11.
Under KLKCQHCNHLFATKPELLFYKGKMFLFCGKNCSDEYKKKNKVVAMCDNCKLQKIIKETVRFSGVDKPFCSEVCKFLSA stands -0.184 ± 0.21; under KLKCQHCNHLFATKPELLFYKGKMFLFCGKNCSDEYKKKNKVVAACDYCKLQKIIKETVRFSGVDKPFCSEVCKFLSA, 0.039 ± 0.089.
As for KLKCQHCNHLFATKPELLFYKGKMFLFCGKNCSDEYKKKNKVVALCDYCKLQKIIKETVRFSGVDKPFCSEVCKFLSA, the abundance fitness is -0.671 ± 0.18.
The value for KLKCQHCNHLFATKPELLFYKGKMFLFCGKNCSDEYKKKNKVVAVCDYCKLQKIIKETVRFSGVDKPFCSEVCKFLSA was -0.145 ± 0.096.
The value for KLKCQHCNHLFATKPELLFYKGKMFLFCGKNCSDEYKKKNKVVAKCDYCKLQKIIKETVRFSGVDKPFCSEVCKFLSA was -0.237 ± 0.18; that for KLKCQHCNHLFATKPELLFYKGKMFLFCGKNCSDEYKKKNKVVAGCDYCKLQKIIKETVRFSGVDKPFCSEVCKFLSA was -0.502 ± 0.085.
As to KLKCQHCNHLFATKPELLFYKGKMFLFCGKNCSDEYKKKNKVVAHCDYCKLQKIIKETVRFSGVDKPFCSEVCKFLSA, the abundance fitness was -0.345 ± 0.36.
Turning to KLKCQHCNHLFATKPELLFYKGKMFLFCGKNCSDEYKKKNKVVAWCDYCKLQKIIKETVRFSGVDKPFCSEVCKFLSA, the abundance fitness was -0.842 ± 0.25.
The value for KLKCQHCNHLFATKPELLFYKGKMFLFCGKNCSDEYKKKNKVVAECDYCKLQKIIKETVRFSGVDKPFCSEVCKFLSA was -0.051 ± 0.13.
Regarding KLKCQHCNHLFATKPELLFYKGKMFLFCGKNCSDEYKKKNKVVAYCDYCKLQKIIKETVRFSGVDKPFCSEVCKFLSA, the abundance fitness is 0.35 ± 0.14.
Under KLKCQHCNHLFATKPELLFYKGKMFLFCGKNCSDEYKKKNKVVARCDYCKLQKIIKETVRFSGVDKPFCSEVCKFLSA stands -0.062 ± 0.073; under KLKCQHCNHLFATKPELLFYKGKMFLFCGKNCSDEYKKKNKVVACCDYCKLQKIIKETVRFSGVDKPFCSEVCKFLSA, -0.407 ± 0.26.
The value for KLKCQHCNHLFATKPELLFYKGKMFLFCGKNCSDEYKKKNKVVAPCDYCKLQKIIKETVRFSGVDKPFCSEVCKFLSA was -0.328 ± 0.16; that for KLKCQHCNHLFATKPELLFYKGKMFLFCGKNCSDEYKKKNKVVASCDYCKLQKIIKETVRFSGVDKPFCSEVCKFLSA was -0.073 ± 0.094; that for KLKCQHCNHLFATKPELLFYKGKMFLFCGKNCSDEYKKKNKVVYMCDYCKLQKIIKETVRFSGVDKPFCSEVCKFLSA was -1.28 ± 0.26.
Under KLKCQHCNHLFATKPELLFYKGKMFLFCGKNCSDEYKKKNKVVGMCDYCKLQKIIKETVRFSGVDKPFCSEVCKFLSA stands -0.132 ± 0.076; under KLKCQHCNHLFATKPELLFYKGKMFLFCGKNCSDEYKKKNKVVPMCDYCKLQKIIKETVRFSGVDKPFCSEVCKFLSA, -0.604 ± 0.28.
Regarding KLKCQHCNHLFATKPELLFYKGKMFLFCGKNCSDEYKKKNKVVSMCDYCKLQKIIKETVRFSGVDKPFCSEVCKFLSA, the abundance fitness is -0.282 ± 0.12.
Under KLKCQHCNHLFATKPELLFYKGKMFLFCGKNCSDEYKKKNKVVVMCDYCKLQKIIKETVRFSGVDKPFCSEVCKFLSA stands -0.319 ± 0.19; under KLKCQHCNHLFATKPELLFYKGKMFLFCGKNCSDEYKKKNKVVMMCDYCKLQKIIKETVRFSGVDKPFCSEVCKFLSA, 0.39 ± 0.28.
Under KLKCQHCNHLFATKPELLFYKGKMFLFCGKNCSDEYKKKNKVVQMCDYCKLQKIIKETVRFSGVDKPFCSEVCKFLSA stands 0.054 ± 0.21; under KLKCQHCNHLFATKPELLFYKGKMFLFCGKNCSDEYKKKNKVVWMCDYCKLQKIIKETVRFSGVDKPFCSEVCKFLSA, -0.558 ± 0.28; under KLKCQHCNHLFATKPELLFYKGKMFLFCGKNCSDEYKKKNKVVEMCDYCKLQKIIKETVRFSGVDKPFCSEVCKFLSA, -0.112 ± 0.16.
Under KLKCQHCNHLFATKPELLFYKGKMFLFCGKNCSDEYKKKNKVVTMCDYCKLQKIIKETVRFSGVDKPFCSEVCKFLSA stands -0.629 ± 0.28; under KLKCQHCNHLFATKPELLFYKGKMFLFCGKNCSDEYKKKNKVVKMCDYCKLQKIIKETVRFSGVDKPFCSEVCKFLSA, 0.117 ± 0.14.
Take KLKCQHCNHLFATKPELLFYKGKMFLFCGKNCSDEYKKKNKVVRMCDYCKLQKIIKETVRFSGVDKPFCSEVCKFLSA: the abundance fitness is -0.495 ± 0.1.
